Entries after “also recorded” stand apart in the source; their conditions may differ.
Key:
peritoneal tissues = experiment: Safety, histology and biochemistry in the adhesion model
Experimental: The concentration of collagenase used was 0.05% in PBS, with an application time of 20 min, in a volume of 20 ml, and at a temperature of 37° C. in a thermal blanket and with prior tempering of the drug.
Blood was drawn from all the rats by intracardiac puncture for biochemistry and cytokines.

[1] = system: abdominal organs and peritoneum; experiment: Survival and necropsy of healthy rats after peritoneal washing (groups A, B); conditions: group A, collagenase 37 U/mL; 1 died after surgery due to evisceration
Source text: During this phase, a series of survival experiments were established with various work groups and subgroups to learn about the co-adjuvant or enhancing role of collagenase in the treatment of peritoneal tumors with chemotherapeutic agents such as mitomycin C:
Each group initially consisted of 6 rats (2×3). In the initial design, 3 animals were sacrificed after 15 days and the rest were left until the conditions of the animals required them to be sacrificed (subcutaneous tumor growth >0.5 cm in diameter) or a maximum of 2 months.

[2] = system: mesothelial layer covering the intestinal tract; experiment: First tests of peritoneal washing with collagenase on rat (Wistar); format: in vivo; conditions: optimum concentration and time (35 U/mL, 10-15 minutes)
Experimental: For the purpose of fine-tuning the volume of the cavity and the optimum treatment time so that no organ in the cavity will sustain any damage, twenty 6-week old Wistar rats weighing 250 grams were used, and they were tested at different concentrations of 35 U/mL of collagenase and 37 U/mL of collagenase for clinical use. Up until now, all the studies had been performed with collagenase for experimental use, nevertheless, the choice was made to use collagenase authorized for clinical use from now on, taking into account the potency equivalence calculations requested from the manufacturer. A study was then conducted using different times of treatment with collagenase from 2 minutes to 30 minutes (30, 20, 15, 10, 5, and 2) with n=2 in the 4 intermediate times.

[3] = system: peritoneal adhesions (polypropylene mesh); experiment: Peritoneal adhesion model group 1 (10 small polypropylene mesh pieces): mesh release; format: in vivo, rat
Source text: Intervention of 5 6-week old Wistar rats of a total of 10 rats belonging to a first group (Group 1). Prior inhalation anesthesia with Forane, the animal being shaved, and aseptic measures being implemented, a minimal opening is made in the skin and the abdominal wall to implant 10 small pieces of polypropylene mesh, five on each side of the midline. They are cut into small 0.5 cm^2 pieces previously wetted with pss (physiological saline solution (0.9% ClNa).
After that (two days later than the first intervention), intervention is performed on the remaining 5 Wistar rats of group 1, and identical follow-up of weight and wound progression, with the administration of analgesia for the next 72 hours.
Four months after the application of the intraperitoneal prostheses, the animals are operated on again for the phase final of the experiment. Before that blood is drawn. First, the experiments are performed on rats belonging to group 1. The study is randomized in pairs and single-blind (investigator). […] Next, the results obtained in each of the operated rats are collected: • 1. R13, 295 g: Dictation: “To the naked eye no meshes are found. At the mesentery and terminal ileum of the cecum there is an area that is folded over and apparently comprises small pieces of mesh. There are no adhesions to the closure of the abdominal wall. Non-traumatic entry.”

[4] = system: peritoneal adhesions (polypropylene mesh); experiment: Peritoneal adhesion model group 2 (4 large meshes): adhesion tear test; format: in vivo, rat; conditions: group 2, blind study, 0.05%; PBS control 325.76
Experimental: About one month later, intervention is performed on 6 additional 6-week old Wistar rats belonging to a second group (Group II). After inhalation anesthesia with Forane, the animal being shaved, and aseptic measures being implemented, laparotomy is performed with the implantation of 4 polypropylene meshes in the abdominal cavity, 2 on each side of the midline. Prior to implantation, the mesh is wetted with pss.
Secondly, experiments were performed on the rats belonging to group 2. The rats in this group were operated on, divided into two groups with 3 rats each, where a first group received 0.05% collagenase and the other placebo (PBS). After that they were subjected to an adhesion tear test, measuring the maximum pressure and the curve at which the adhesion tore. To that end, an adhesion tear measurement system was used which consisted of a high-precision digital pressure gauge that measured the pressure of a closed and rigid system with three outlets. One was a manual pressure pump, the other one was a piston with linear mobility to which clamps for pulling are fitted and which takes pressure away from the pressure gauge. The pressure needed to cause the tear of the adhesions generated in the collagenase group vs. control group was measured with this system.

## Collagenase
Peritoneal tissues; 37 mg/Kg for 20 minutes at 37° C. as a peritoneal washing, murine model
  release of adhesions (final conclusion): favors the release of adhesions
Peritoneal tissues; 0.05% in PBS, 20 min, 20 ml, 37° C.
  other relevant finding upon application of the treatment: pancreatic reaction
Peritoneal tissues; 0.05%, vigorous washing at 37° C. for 20 minutes, murine model
  safety of intraperitoneal application: safe for intraperitoneal application in a murine model, without associated mortality
Peritoneal tissues; 2 months after the use of drug or PBS
  analysis of the models at euthanasia, drug vs PBS: did not show any significant differences; also recorded: fewer adhesions did subjectively appear
Peritoneal tissues; animals with small or large meshes, peritoneal washing with collagenase
  histological study of tissues: are not affected
Peritoneal tissues; both study groups
  amylase: increases in both study groups
Peritoneal tissues; serial tests, immediately and at different points of control after the intervention
  biochemical or hematologic parameters: without finding significant differences with the control groups
[1]
  survival: 4 out of 5
[2]
  macroscopic and histological findings: No organ or tissue impairment is observed histologically; also recorded: elimination of the mesothelial cells covering the intestine and omentum is observed but without the involvement of any organ; also recorded: thinning of the mesothelial layer covering the intestinal tract without the involvement of intermediate or internal layers
[3]; 0.05% in PBS, 20 ml, 20 minutes, 37° C., single rats R11, R12, R17, R18, R19 in block order
  mesh and adhesion release after washing (dictation): one of the balls of hypochondrium loops breaks up with slight pulling and several pieces of mesh (3) are released; also recorded: mesh seen in the omentum is readily released with slight pulling. Another mesh in the suprapubic fat is dissected and released without damaging the fatty aggregate, 6 pieces of mesh being released with digital dissection and without bleeding; also recorded: One of the meshes contained in the ball of the terminal ileum separates completely with slight pulling; also recorded: Mesh separates from the hepatic omentum with slight pulling (there are two meshes, one of them is not readily separated successfully)
[3]; group 1, blind study randomized in pairs, 0.05%, PBS control 8%
  efficacy in extracting meshes: 42%
[4]
  adhesion tear pressure: 188.26 millibar
